In US8796201B2 (The Board of Trustees of the Leland Stanford Junior …, priority 2002, dated 2014):

Key:
PQPQLPYPQPQLP = experiment: Site specificity of […] hydrolysis, LC/MS/MS; format: biochemical, wheat; conditions: 100 μM peptide, 0.1 μM enzyme, early time points
Protocol: FIG. 10. Site specificity of […] hydrolysis by individual PEPs. HPLC-UV (215 nm) traces are shown for each reaction mixture. Initial cleavage fragments (100 μM (SEQ ID NO:4) […], 0.1 μM enzyme, t=5 min) were identified by tandem mass spectrometry. The starting material (SEQ ID NO:4) […] and the cleavage fragments A: (SEQ ID NO:4, aa. 1-8) […], B: (SEQ ID NO:4, aa 7-13) YPQPQLP, C: (SEQ ID NO:12, aa 1-6) PQPQLP, D: (SEQ ID NO:4, aa 2-6) QPQLP) are indicated in the traces.
The decrease in substrate concentration as well as concomitant intermediate and product build-up were monitored with HPLC analysis. RP-HPLC was performed on a system consisting of Beckman or Rainin Dynamax SD-200, a Varian 340 UV detector set at 215 nm and 280 nm. Solvent A was H2O with 0.1% TFA and solvent B was acetonitrile with 0.1% TFA; gradient used: 0-5% B in 0-15 min, 5-30% B in 15-30′, 30-100% B in 30-35 min, 100% B for 5′; flow 1 ml/min; separation was performed on a 4.6×150 mm reverse phase C-18 column (Vydac, Hesperia, Calif., USA). Samples were centrifuged for 10 min at 13,400 g, prior to injection of 10-100 μl. […] Thus, multiple peptides accumulate during the course of the reaction, some of which are secondary PEP substrates in themselves.
To analyze the regiospecificity of hydrolysis of (SEQ ID NO:4) […] by individual PEPs, samples corresponding to early time points were further analyzed by LC/MS/MS. […]

[1] = Enzyme activity vs. pH (kcat titration); format: biochemical; conditions: for active site pKa: 100-4000 μM succinyl-Ala-Pro-pNA
Protocol: FIG. 8. Effect of pH on the turnover numbers (kcat) of FM PEP, MX PEP and SC PEP.
Activity Assays. Post-proline cleavage activity was measured using Z-Gly-Pro-p-nitroanilide and Succinyl-Ala-Pro-p-nitroanilide (Bachem, CA). Z-Gly-Pro-pNA was dissolved in a PBS:water:dioxane (8:1.2:0.8) assay mixture. The concentration of Z-Gly-Pro-pNA was varied from 100-600 μM. Although the substrate Z-Gly-Pro-pNA was effective in detecting enzyme activity, its insolubility at higher concentrations precluded kinetic measurements under substrate-saturated conditions. In contrast, Succinyl-Ala-Pro-pNA, had the advantage of high water solubility at all pH values tested, and was therefore a preferred substrate for kinetic studies. […] Reaction mixtures ([…] consisted of 30 μl of 10× pH buffer, final concentration of 0.01 μM enzyme, and Suc-Ala-Pro-pNA to final concentrations between 100 μM to 4 mM.
Enzyme Activity vs. pH. The luminal environment of the duodenum is approximately at pH 6. Therefore, a therapeutically useful PEP must retain high specific activity at that pH. The steady state turnover rate, kcat, of each PEP was titrated in various pH conditions using 100-4000 μM succinyl-Ala-Pro-pNA, shown in FIG. 8. […] Such conformational changes have been implicated in the catalytic cycle of the structurally characterized porcine brain PEP.

33-mer gliadin peptide = experiment: In vivo endopeptidase activity: co-perfusion of 33-mer and PEP in rat jejunum
Protocol: FIG. 7. Breakdown and detoxification of 33-mer gliadin peptide with PEP.
FIG. 14. (SEQ ID NO:12) Proteolysis of […] (5 μM) co-perfused with individual PEP's (0.1 μM) in the small intestinal lumen of an anesthetized rat. Each enzyme-substrate mixture was introduced via a catheter into a 15-20 cm segment of the upper jejunum. Samples were collected at the other end of the segment, and analyzed by UV-HPLC (215 nm). The control without any PEP is shown in the top trace.
In accordance with the methods of the invention, a prolyl endopeptidase can catalyze breakdown of this peptide, thereby diminishing its toxic effects. […] The ability of this PEP to clear the 33-mer gliadin peptide was evaluated via in vitro and in vivo experiments.
In Vivo Endopeptidase Activity. An adult (female or male) rat was anesthetized and maintained at 36-37° C. during the entire surgical procedure. The peritoneal cavity was opened, and a small incision was made at the beginning and the end of a 15-20 cm jejunum segment. Polyethylene catheters were inserted and secured into the two ends. The input catheter was connected with a pump-driven syringe filled with a solution. […] The collected digestive products were analyzed by HPLC on a C18 column.
In Vivo Hydrolysis. […] In this live animal model, the impact of concerted action of the perfused (luminal) PEP and the brush border (surface) peptidases is assessed.

B1: MX PEP: novel recombinant prolyl endopeptidase from Myxococcus xanthus (Genbank AF127082, SEQ ID NO:47) (protein, listed as Myxococcus xanthus)
chain: MSYPATRAEQVVDTLHGVQVADPYRWLEDEKAPEVQTWMTAQNAHAREALAKFPGREALAARFKELFYTDSVSTPSRRNGRFFYVRTHKDKEKAILYWRQGESGQEKVLLDPNGWSKDGTVSLGTWAVSWDGKKVAFAQKPNAADEAVLHVIDVDSGEWSKVDVIEGGKYATPKWTPDSKGFYYEWLPTDPSIKVDERPGYTTIRYHTLGTEPSKDTVVHERTGDPTTFLQSDLSRDGKYLFVYILRGWSENDVYWKRPGEKDFRLLVKGVGAKYEVHAWKDRFYVLTDEGAPRQRVFEVDPAKPARASWKEIVPEDSSASLLSVSIVGGHLSLEYLKDATSEVRVATLKGKPVRTVQLPGVGAASNLMGLEDLDDAYYVFTSFTTPRQIYKTSVSTGKSELWAKVDVPMNPEQYQVEQVFYASKDGTKVPMFVVHRKDLKRDGNAPTLLYGYGGFNVNMEANFRSSILPWLDAGGVYAVANLRGGGEYGKAWHDAGRLDKKQNVFDDFHAAAEYLVQQKYTQPKRLAIYGGSNGGLLVGAAMTQRPELYGAVVCAVPLLDMVRYHLFGSGRTWIPEYGTAEKPEDFKTLHAYSPYHHVRPDVRYPALLMMAADHDDRVDPMHARKFVAAVQNSPGNPATALLRIEANAGHGGADQVAKAIESSVDLYSFLFQVLDVQGAQGGVAAQGR
preferred site of cleavage in PQPQLPYPQPQLP (PQPQLPYPQPQLP): PQPQLP|YPQPQLP | active site pKa [1]: ~6

B2: PEP: prolyl endopeptidase; Examples 1-2: from Flavobacterium meningosepticum (US Biological); Example 11: source not stated (protein, UniProt P27028 21-705, looked up)
Prolyl endopeptidase: QNSNVLKYPETKKVSHTDTYFGTQVSDPYRWLEDDRAEDTKAWVQQEVKFTQDYLAQIPFRDQLKKQLMDIWNYEKISAPFKKGKYTYFSKNDGLQAQSVLYRKDAAGKTEVFLDPNKFSEKGTTSLASVSFNKKGTLVAYSISEGGSDWNKIIILDAETKKQLDETLLDVKFSGISWLGDEGFFYSSYDKPKEGSVLSGMTDKHKVYFHKLGTKQSQDELIIGGDKFPRRYIGAYVTDDQRYLVVSAANATNGNELYIKDLKNKTDFIPIITGFDSNVNVADTDGDTLYLFTDKDAPNKRLVKTTIQNPKAETWKDVIAETSEPLEINTGGGYFFATYMKDAIDQVKQYDKNGKLVRAIKLPGSGNASGFGGEKTEKDLYYSFTNYITPPTIFKYNVTTGNSEVYQKPKVKFNPENYVSEQVFYTSSDGTKIPMMISYKKGLKKDGKNPTILYSYGGFNISLQPAFSVVNAIWMENGGIYAVPNIRGGGEYGKKWHDAGTKMQKKNVFNDFIAAGEYLQKNGYTSKEYMALSGRSNGGLLVGATMTMRPDLAKVAFPGVGVLDMLRYNKFTAGAGWAYDYGTAEDSKEMFEYLKSYSPVHNVKAGTCYPSTMVITSDHDDRVVPAHSFKFGSELQAKQSCKNPILIRIETNAGHGAGRSTEQVVAENADLLSFALYEMGIKSLK
detoxification (clearance) of the 33-mer gliadin peptide (33-mer gliadin peptide; rat BBM and co-perfusion in intact rat intestines): this detoxification was demonstrated

B3: FM PEP: recombinant prolyl endopeptidase from Flavobacterium meningosepticum (Genbank D10980) (protein)
chain: B2 Prolyl endopeptidase
preferred site of cleavage in PQPQLPYPQPQLP (PQPQLPYPQPQLP): PQPQLPPYP|QPQLP | breakdown of the 33-mer co-perfused in rat jejunum (33-mer gliadin peptide; 5 μM 33-mer, 0.1 μM PEP, 15-20 cm segment): promoted more complete breakdown of the 33-mer than both the MX and the SC PEP | active site pKa [1]: ~6 | pH optimum ([1]; as stated in the description, no method given): ~7
